{"source": "paper PMC6584995", "about": "“Disruption of an amino acid transporter LHT1 leads to growth inhibition and low yields in rice” (BMC Plant Biology, 2019)", "substrate": "NC(=O)C[C@H](N)C(=O)O", "assay": "two-electrode voltage clamp in Xenopus oocytes, Asn-induced currents", "assay_type": "cell-based, Oryza sativa", "conditions": "pH 5.4 (Tris/MES), currents at -140 mV, holding potential -40 mV, transport", "data": [{"protein": "OsLHT1 (Oryza sativa Japonica Group) (protein) MGTQVADNYPPAKDGRSAQEKAIDDWLPITSSRNAKWWYSAFHNVTAMVGAGVLSLPYAMSELGWGPGIAVLILSWIITLYTLWQMVEMHEMVPGKRFDRYHELGQHAFGEKLGLWIVVPQQLVVEVGVNIVYMVTGGKSLKKFHDVLCEGHGCKNIKLTYFIMIFASVHFVLSQLPNFNSISGVSLAAAVMSLSYSTIAWGASVDKGKVADVDYHLRATTSTGKVFGFFSALGDVAFAYAGHNVVLEIQATIPSTPEKPSKKPMWKGVVVAYIIVALCYFPVALVGYWAFGNHVDDNILITLSRPKWLIALANMMVVIHVIGSYQIYAMPVFDMIETVLVKKLRFPPGLTLRLIARTLYVAFTMFIAITFPFFGGLLGFFGGFAFAPTTYFLPCIMWLAIYKPRRFSLSWFTNWICIILGVMLMILSPIGGLRQIIIDAKTYKFYS", "values": [{"measurement": "Km", "value": "583 ± 51", "unit": "µM"}]}]}
